Test results: the supplement of paper PMC12636428

Test system: Saccharomyces cerevisiae
Assay: transcriptional activation domain activity (GFP:mCherry ratio, weighted mean of sorted bins, harmonized to initial dataset scale) (arbitrary fluorescence ratio units); higher = stronger transcriptional activation
Conditions: beta-estradiol 1 µM; induction time 4 h
How it was run: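 Barcoded protein tiles fused to an estradiol-inducible synthetic transcription factor were integrated at the yeast URA3 locus, in diploids carrying a GFP reporter. Cultures were diluted 1:5 into SC with 1 uM beta-estradiol, held 4 hours at 30 °C, sorted into 8 bins by GFP:mCherry ratio, and barcodes sequenced. Tiles under 50 reads were discarded. Activation activity is the read-weighted mean of bin median fluorescence, averaged across barcodes, then linearly mapped onto the initial dataset scale.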

Row | Sequence | transcriptional activation domain activity
1 | SLHLAGCMLITCIGFIVLACLDVSQHIGAGYFCCFLLCCGGYISSPLLSTWYN | 94700
2 | MCLLGDGRHPEFFIFYFLYHFFLLYLLFYPQAFSRYLFIWMGCLNCFYFRFGL | 41000
3 | RPWRWSFGVYVLCRTLALGGIISAFVGFSPFNEFHCDVWLRFLLVFSWFAIAS | 66600
4 | FFGVCLGFYGFSFRSNFEPGAIIHDYILFMTPSFASLCARFHIQWLLFILFIH | 46800
5 | KGGASPEDASAQSGGSRSKEAKETGSSPTGGKVGNSGGKSSSSSGGPEEKNKD | 35600
6 | SEPEEEDSSSKKRKRKADDEGKKKAKKGKKAAGSDDEDEDANSVHISVTQAVS | 36600
7 | ENGRNLLRELLIFVAAWDLREEELYFKFMVKILESILVNGYLPYAYHAFREYD | 62000
8 | RLFSKQLHPRMFRVCLTLIIIVAIWGLTFICLVIFACNPVEKSWHVTMPGKCI | 27500
9 | VNGGGESDEDVKSKKDSKRKGKAIKGEDEEEEEEKPKANSKRGRKKVEENGAV | 44700
10 | ARAEELGARVSTGRRVVDVRCSSRGEEGSAAVAVCADGSRYAADLVVGADGVH | 51600
11 | TSSTNHFYGTVVKTKDLLPIYLDVVLWMLKRDLLVTLHLRVRIVVPAELKERA | 59600
12 | MIFSLFLSYNPLFYFIYYYLFYFSCFLLLILIAIITIIAILLCILEFHVPKSL | 51600
13 | AKGAKKAKGAKKAKGAKKAAAGGAAAKAGAAAKAAKKAAKAKAAAAGGAAAAA | 26000
14 | PRVVELQKEVIAYNKRLLALNIRDHQVQYAKLNIFYCFGLFWYRVLKLLVLSA | 38500
15 | FSFGLLFWFLFLFLFLLLFVFLFWSFGFVLLLVLVLFLCSFLLFMFGFWFSSG | 47100
16 | SLLAKCDNGDVLKLQEAIEEDDAAREERERAERAAAALKREKEGSASRVLVTG | 38800
17 | DEVLKPLWLGIRLHRGKGLAAFLKAIGFIIPLMDPNTLTVILIREFQTSDEEM | 15100
18 | MMDCRRRTGFQAFFLSFLSLVLSSFFLLCLFNPYVCVFFLIFHYRLTFSVIWS | 49100
19 | SSAKDIEGDGDGADVIRNNRLAKRSTAGVKVKKHVAQIIKMRKVTPRSIAYIA | 40000
20 | VIYRIDKDELTTGMLLVRNNLVELMAASTGPAAHLRVLVVDLVAPSFRSIPRG | 44400
21 | RVVYVSCNVHTQARDVGVLVRGEVEDVAANSNNTNMSTTTKNKTGGGVRYEIE | 23600

Row | Sequence | transcriptional activation domain activity
22 | SKKKGRKAQKTGSADPAPNESKDRAGATEEAAEGAADEEDEQDEDEDEDEEGE | 37600
23 | MLPDEVSPWFQEVFIPTLLAYCGTFQHPWDLPQPFEDIIAELWPFVFPLSLPY | 68000
24 | HRQTTLSVALPCGELHIAYLVAGLLFHGATCDDIVVIMLCARILFSVCKIYYH | 77100
25 | RDCQWCAQLVRRTAIVAFNATNAVLNANMYVFVCIFLIAWLVVWKTWLWSVAL | 38300
26 | RSLLWQLSVWSFIKLMILMLFGYRMEAISILGREVMLPRGLIGLGYDSIDHCG | 47800
27 | KRPTSHTLRPFFYFLLAVIYTVAHALVMIYQMISLNVAVNSYDNALLTLLVSN | 52200
28 | GGVNWESTRDREAVVIRILSPIVEADGSVYICIWIHPVGIIIVHLIVELKLVH | 42300
29 | PCKCHTKRKSSRKSKGGSCHRRANDEAAHVNGLGIADLDVLLGLNGRSSDVDM | 44000
30 | ALNAIIEGFQLFRSAFQPASLSVSMVHSVSVLVNWPSPYFTSLLLPGYDIGFP | 62800
31 | GEGKRGGVGKKGKGKTKGKEGSIGKSNAKKGASETPKKEKEKARGAEASDKGS | 45600
32 | EEEEDAETPAQESEEEKAASEPSSPPVVQQIPRKKRLGRPPKNRPPDWNAVEP | 37600
33 | KQRKAELIHHVVPLAVAAAFSIFLSGEDLEGPRIYHSMASLKVLRRLVAVISS | 54400
34 | KLGLGPTYGIMLALLVSHGIVCCFKTSILARLNVYYVILNLGTLIALSVALLV | 50600
35 | EEKKEDDWQVLDGKEKAAGGAGEGDAAEGAEGGATTEGEKKDDAGGAPAGEGA | < 6570
36 | SGIYSGGLSLWTAFFLGYFKAFLWGSFWGWLAGYFVLLFVICVAWNPFFFLYL | 57600
37 | MFCPDVCLVLSIGDVLLAMSYWRCLRETASLFHYHLVPPFELLPLYSVRITAA | 58800
38 | WLLCQVPTRNLGVLVFDSSKRYHLVHPDSPTGEQRHTQFVIVLFIVAFIRGVA | 47700
39 | FVLLLFTCVHVFVVYLVVIAFFTVNICLLWTIALSFMLWYIFFCNLSCSTWPL | 54300
40 | LLWFYFLFLFCIFCWWLRYASSLVPNICHIHVIHDLADAFMHIRFVLFISILS | 72300
41 | DVKKVYFASRFPGNWLRDYSQAMDIAGLSKLSSDTLVLVVAVLGFMTFGFATE | 38900
42 | FKSMIFFLWFLDTLQLAFVIHALYYYLITSYGNIVALMKPTWSILLQIYVTSL | 69400

Row | Sequence | transcriptional activation domain activity
43 | SLRVDTSVTCCKLRSFSHIVTSYIEVLFLLKILREFLYADLFVHIWLALSLLA | 62700
44 | GKKKGKRGKGKGKRGRGKGRGEREGWQGKAAGKEGAGKKGAGEGEQGKGSRGK | 44300
45 | MCEQHTCLFVLLSVKLLLWRLLFFVESSFLDGMELVLTGRWWAYYIYLWCLTV | 54400
46 | RIESHLSEREYKLQTFAEFLRVPDNGSLDIESLDSSLIENTLNSHDVTNQALD | 26700
47 | LVQIVCVAGMHVTLYEQSCLYKCENLKRIITSFHHVNRKVRDAFINLYGKLNP | 74600
48 | KRREKRKKRKQRDQGRKKTKKDGVGEPSNEGGEDDNGESGKDDDDQGKESDKD | 29600
49 | MAHLAYHPLYPLWDLLSHTLIMLIFLITLICLLCPFPSLFIFTPICLSVYLLI | 27200
50 | RARRNSDSSIIDKAAQEKEDRRRRERRREREREEKDRDGKSSSTRKVRKPQGL | 26200
51 | NHWVFGAFSECFIPGVFLSLHPLTFFLDWTIGFVSDVYTFDAHDPSILELLIF | 47000
52 | LVYPIVYLYMDRFFMFVLCSPPSHVLGCWESVTVRTYVGILFPLLICCLFYVL | 41100
53 | APAQPAATGGGLFGSGATGTTGGFGSNTAGGFGTGGGFGAKPAFGATPSTTGG | 15600
54 | MYLFFLFYILEFAVRSESGPICASNTKCIGRYCVYCKCTSLLSRVLRLLFICC | 64300
55 | MLSRCFKCPYGAWGVIIFFIFFFYFFLNIPFFFVYYYLLFFVCSFFSFFFHFI | 38600
56 | MCLLGDGRHPEFFYFLFFIPFDFLLHLLFYPRAFSRYLFIWMGCLNCFYFGLA | 56200
57 | EEPKAEEAAPAAEAPAAEAPAAETPAAEPAAEQPATEEAKPAESAATETKKED | 12500
58 | SERRSHNQRDPERRDRNSNQSKRRRVDDSDSESDRRNRRRRVEHSSRKSHRSR | 43800
59 | ESKNKAEEETEEGEGARGEEEEEEKEEQGESDNEDANSAEADKTKSKQGKKQR | 31900
60 | MAPPFLGHFFGLYPSIMIRFPCLLLYRFATVYLGVLLFPFSILFFILFIFYFF | 34200
61 | LRSVGRGGNSLVVIGFFVMNGVGIVLERVWKRICGRSVRGIWGWIWTFSWLAL | 79900
62 | MVLISFKSISPITSPILPTYHHHHHSFHHSIHHLLLIYYKLILLFLFFLIFYL | 46800
63 | HSPYLNSEADFSQILSSAPPVHHDPNETHQENQDIIDRFANSSQEHNEYILQY | 66200

Row | Sequence | transcriptional activation domain activity
64 | STLQLASSFDITVNGPPVLCQGISITACASSSLVVALSWISCMIMLMYFFSLL | 52800
65 | SSTNPGTESAKPEKPKRAPRQKASSKKADSKPKRTTARSKKAVKLAAEKLLSP | 15600
66 | KLYSLGHILHSFIFVFSFFHFLISFLHSGFLCPRLFMFSSSLLFYYFLVGFFF | 27700
67 | SRKESRKEKSESKPVKAGKKEGKEKGKGKEGKEGKADGEKAAKPKKEKKEKKE | 17700
68 | MSFFLFFVSCLLLFFVFVLFLFFSFRSFLSSVPFPFRFCFLFLFALSLFFLLV | 41400
69 | EEEAPEDNSGPRQGAKPAKRAHARARAPKCSGPTNAKVNGKGRARRSGRPAKK | 24900
70 | STTRQQRASLPLIHDIESFANDSVMANPLSDSASFLSEENEDDAFGALNYNSL | 51500
71 | LCSWLIPRVLVLLGRKGCEKLMENIKALFDLFFQIIPQYPNFWCWESILLDYL | 41800
72 | SKDEEGEGEGEGDEEKVEEGGDEDGEQVEGEDGAKSAAATASAKKFSKREKEM | 48900
73 | PKRRLGVAVTWTGLTLLLLLLLLLLPSLIILPSFAACFWYIYWGILRISFFFY | 26100
74 | GDADVDGNGHGTHCSGTIAGKKYGVSKKAKIYAVKVLRSNGSGTMADVVAGVE | 59400
75 | KQYCVRPNSGRIEPGREVEVSVLLQAMKQEPAPDARCRDKFLVQSVTITSDQE | 20500
76 | KPLGRQELQRFVALLHSHLETQILEYMHTRRKLSDVVLFLRRTLATCLLLYGC | 38100
77 | ATLHYISPYCPRFGRYHILRMLHCIGGLHVAANLWCYYWVWVYVLNEIILPQW | 66400
78 | SGTSLFLFYFYFIFILILISIITFFFLFLIFFFIILFLLLLFFSYPSGIRPGW | 26900
79 | TRTRKWWLRTVWACTWLIPSFLLSSVGRMKRPDVRLAWREKVTIFWLIFLFNG | 68900
80 | MWWAFIFFFLLSFFLFLLFLGWLAGWQVCCWGFWFLVGFHFGWLGWFGCGITS | 32000
81 | SIRVILLNLGLSNGLETIPYGLISIIYQSKYQSFAYTLLFFSNLFTYSLWYVV | 61200
82 | SGLAFRNFWIRRISFAGHLRNSNSALTPSRYFRLMSMAVVQMFWGLVVTSLYT | 46800
83 | VYCQVLLNHKYRAYGGGYRAETIIYSFGRLSDLLYFVPVVVGRMEMRMGLTLK | 52200
